We go through seven substances from PMC8584621.

Data set [1] deals with T1, SCO3932 (GntR-like, HutC subfamily) (Streptomyces coelicolor A3(2) M145) (UniProt Q9X9T6).
T1 sequence: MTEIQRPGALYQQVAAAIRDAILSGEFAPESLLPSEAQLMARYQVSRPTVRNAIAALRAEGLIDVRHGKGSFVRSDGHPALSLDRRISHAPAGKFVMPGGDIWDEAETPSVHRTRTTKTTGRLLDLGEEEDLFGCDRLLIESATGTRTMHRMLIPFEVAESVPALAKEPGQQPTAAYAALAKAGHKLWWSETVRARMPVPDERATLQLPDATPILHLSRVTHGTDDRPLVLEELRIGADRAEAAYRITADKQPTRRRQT
Briefly: DMS footprinting. The conditions noted are these: EMSA: 10 mM Tris-HCl pH 7.5, 50 mM KCl, 1 mM DTT, herring sperm DNA 100 ng, DTT/Tween20, 0.03 pmol probe in 16 uL, 20 min room temperature; footprint: same ….

Data set [2] has as its target T1, SCO3932 (GntR-like, HutC subfamily) (Streptomyces coelicolor A3(2) M145). Briefly: DNase I footprinting. Particulars: EMSA: 10 mM Tris-HCl pH 7.5, 50 mM KCl, 1 mM DTT, herring sperm DNA 100 ng, DTT/Tween20, 0.03 pmol probe in 16 uL, 20 min room temperature; footprint: same …. A general note: A gel shift assay detects complexes by their altered migration in electrophoresis.

For data set [3], the system named is SCO3932 (GntR-like, HutC subfamily) (Streptomyces coelicolor A3(2) M145). The data set can be described thus: EMSA. Particulars: EMSA: 10 mM Tris-HCl pH 7.5, 50 mM KCl, 1 mM DTT, herring sperm DNA 100 ng, DTT/Tween20, 0.03 pmol probe in 16 uL, 20 min room temperature; footprint: same ….
The test system is the same in data set [4]. Briefly: DNase I footprinting. Particulars: protein concentration giving protection, EMSA: 10 mM Tris-HCl pH 7.5, 50 mM KCl, 1 mM DTT, herring sperm DNA 100 ng, DTT/Tween20, 0.03 pmol probe in 16 uL, 20 min room temperature, footprint: same ….

“AAGGATCCGAATGGACTGCATTTCTGTGGCCTCCCTGGCCAATCCAGGACGTCCAACCTATTCGGACGTCACTTGTCCTTACGAGTGACAAGCTTGGAGCACTGTACGGCGAGAGCGCAACTACTTATGCTGACGAGTGATGTCGCGCGTGCGACGTGCCTACGACACCAGACCGGAGATGCCGAGATGACGGAGATCCAGAATTCTT (double strand) [p3932/3933 footprint probe]”: the figures for the binding entry in data set [1] and in data set [2] were “binds” and 100 nM, respectively.
In turn, p3932/3933 EMSA probe returned a binding in data set [3] of 1.9 nM.
For the substance p3932/3933 footprint probe, the binding in data set [4] (sites K1, K2) was 100 nM.
As to pactII-orf4 EMSA probe, in data set [3], the binding worked out at 9.4 nM.
pactII-orf4 footprint probe registered a binding in data set [4] (sites A1, A2) of 800 nM.
In turn, pcpkA/D EMSA probe registered a binding in data set [3] of 9.4 nM.
As to pcpkD footprint probe, the binding in data set [4] (site D) turned out to be 800 nM.
